Results reported in patent US20200297760A1, “COMPOSITIONS AND METHODS FOR REDUCING IMMUNE RESPONSES AGAINST CHIMERIC ANTIGEN RECEPTORS” (Juno Therapeutics, Inc., priority 2015, published 2020).

molecular target: HLA-A*11:01 (recombinant MHC class I molecule) (human); assay: REVEAL MHC-peptide binding assay, recombinant HLA-A*11:01; conditions: remark: other sources report otherwise

Binder | In Vitro Score (score, % of positive control peptide)
VAFIIFWVK | 109
IIFWVKRGR | 54.5
VAFIIFWVS | 25.1
AFIIFWVSR | 54
IIFWVSRGR | 68.9
IFWVSRGRK | 39.2
IIFWVLRGR [Synthetic peptide …, listing 1 of 2 here] | 35.2
AFIIFWVHR | 34.9
FIIFWVHRG | 0.9
IIFWVHRGR | 77.5
IFWVHRGRK | 36.6
AFIIFWVAR | 51.8
IIFWVARGR [Synthetic peptide …, listing 1 of 2 here] | 70.6
IFWVARGRK | 34.9
WVARGRKKL [Synthetic peptide …, listing 1 of 2 here] | 13.8
IIFWVQRGR | 72.8
IFWVQRGRK | 128

Binder | In Vitro Score (score, % of positive control peptide)
WVQRGRKKL | 12.8
IFWVKRGSK | 47.9
WVKRGSKKL | 11.8
IIFWVKRGL | 32.4
IFWVKRGLK | 61.1
IFWVKRGHK | 30.9
WVKRGHKKL | 2.8
IIFWVKRGA | 22.6
IFWVKRGAK | 69.7
WVKRGAKKL | 4.6
IIFWVKRGN [Synthetic peptide …, listing 1 of 2 here] | 42.1
IFWVKRGNK | 45.9
WVKRGNKKL | 4.1
IIFWVQRGA | 56.5
IFWVQRGAK | 61.3
IFWVQRGNK | 67.5
WVQRGNKKL | 10.7

molecular target: HLA-A*03:01 (human); assay: REVEAL MHC-peptide binding assay, recombinant HLA; conditions: remark: other sources report otherwise

Binder | In Vitro Score (% of positive control peptide)
IIFWVKRGN […, listing 2 of 2 here] | 4.3
IIFWVLRGR […, listing 2 of 2 here] | 2.8
IIFWVARGR […, listing 2 of 2 here] | 18.6
WVARGRKKL […, listing 2 of 2 here] | 1.3

molecular target: HLA-B*08:01 (recombinant MHC class I molecule) (human); assay: REVEAL MHC-peptide binding assay, recombinant HLA-B*08:01; conditions: remark: other sources report otherwise

Binder | In Vitro Score (score, % of positive control peptide)
VAFIIFWVK | 0.3
IIFWVKRGR | 0
VAFIIFWVS | 0.1
AFIIFWVSR | 0.3
IIFWVSRGR | 0
IFWVSRGRK | 0
IIFWVLRGR [Synthetic peptide …, listing 1 of 2 here] | 0.4
AFIIFWVHR | 0.3
FIIFWVHRG | 0.2
IIFWVHRGR | 0.2
IFWVHRGRK | 0.1
AFIIFWVAR | 0.2
IIFWVARGR [Synthetic peptide …, listing 1 of 2 here] | 0.3
IFWVARGRK | 0
WVARGRKKL [Synthetic peptide …, listing 1 of 2 here] | 32.4
IIFWVQRGR | 0.1
IFWVQRGRK | 0
WVQRGRKKL | 45.1

Binder | In Vitro Score (score, % of positive control peptide)
IIFWVKRGS | 0.4
IFWVKRGSK | 1.2
WVKRGSKKL | 56.1
IIFWVKRGL | 1.7
IFWVKRGLK | 58.3
IFWVKRGHK | 3.2
WVKRGHKKL | 47.6
IIFWVKRGA | 0.9
IFWVKRGAK | 2.2
WVKRGAKKL | 34.1
IIFWVKRGN [Synthetic peptide …, listing 1 of 2 here] | 0.9
IFWVKRGNK | 0.1
WVKRGNKKL | 65.9
IIFWVQRGA | 0.2
IFWVQRGAK | 0.2
IFWVQRGNK | 0.1
WVQRGNKKL | 32
